Assay results as given in publication PMC8104898.

Target: fibronectin fragment FN7-10 (type III domains 7 to 10), wild type
Assay: ELISA

recombinant integrin α5(N275A)β1 ectodomain, unclasped (from UniProt P08648;P05556) (complex)
reduction of binding against the wild-type ectodomain: 60%
